Measurements published in publication PMC6971075, “Augmentation of Bri2 molecular chaperone activity against amyloid-β reduces neurotoxicity in mouse hippocampus in vitro” (Communications Biology, 2020).

T1: rh wild-type Bri2 BRICHOS-mCherry (human, UniProt Q9Y287 113-231)
T1 construct: Bri2 BRICHOS domain, human (rh = recombinant human), Bri2 residues 113-231; Used as isolated oligomers; also called rh Bri2 BRICHOS-mCherry; source: E. coli SHuffle T7, purified (same protocol as R221E; oligomers isolated on Superdex 200 PG); not shown: His6, N-terminal, cleaved; NT*, N-terminal, cleaved; mCherry, C-terminal, kept
T1 sequence (looked up): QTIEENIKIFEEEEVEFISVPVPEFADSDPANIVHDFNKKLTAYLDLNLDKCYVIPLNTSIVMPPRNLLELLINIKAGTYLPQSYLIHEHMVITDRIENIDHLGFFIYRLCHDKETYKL


Tests used:
[1] = molecular target: the molecule itself; test: SEC; isolated monomers at low concentration (~7.5 µM) and high concentrations (54 µM for R221E, 30 µM for wt)
[2] = molecular target: T1, rh wild-type Bri2 BRICHOS-mCherry; test: not stated; coincubation of R221E monomers with Bri2 BRICHOS-mCherry oligomers at rising molar ratios; release of wild-type monomers followed (Supplementary Fig. 5); conditions: both partners purified

Row | Binder | stoichiometry N [1] | molar ratio of mutant to wild-type oligomers at which the release of wild-type monomers saturates [2] [mol/mol]
1 | rh wild-type Bri2 BRICHOS (domain or fragment, human, UniProt Q9Y287 113-231, looked up, Bri2 BRICHOS domain, human (rh = recombinant human), Bri2 residues 113-231; also called rh wt Bri2 BRICHOS; wild-type monomers; source: E. coli SHuffle T7, purified (Ni-NTA, thrombin cleavage, second Ni-NTA, SEC); not shown: His6, N-terminal, cleaved; NT*, N-terminal, cleaved) QTIEENIKIFEEEEVEFISVPVPEFADSDPANIVHDFNKKLTAYLDLNLDKCYVIPLNTSIVMPPRNLLELLINIKAGTYLPQSYLIHEHMVITDRIENIDHLGFFIYRLCHDKETYKL | 2 | –
2 | rh Bri2 BRICHOS R221E monomer (domain or fragment, human, UniProt Q9Y287 113-231, looked up, intramolecular disulfide bond between the two conserved Cys (monomer, by ESI-MS), Bri2 BRICHOS domain, human (rh = recombinant human), Bri2 residues 113-231, with R221E; Used here for the isolated monomer and as the subunit in the rows on self-association (oligomers, dimers); Measured mass 14,050.2 Da; also called rh Bri2 R221E monomer; source: E. coli SHuffle T7, purified (Ni-NTA, thrombin cleavage, second Ni-NTA, SEC); not shown: His6, N-terminal, cleaved; NT*, N-terminal, …) QTIEENIKIFEEEEVEFISVPVPEFADSDPANIVHDFNKKLTAYLDLNLDKCYVIPLNTSIVMPPRNLLELLINIKAGTYLPQSYLIHEHMVITDRIENIDHLGFFIYELCHDKETYKL | – | ~2
